# Test results taken from paper PMC6554723.
# Molecular target: dansyl-CaM (dansylated calmodulin), P0DP29
# Assay: other fluorescence titration
# Conditions: remark: other sources report otherwise
binder,measurement,value
"purified recombinant RGS14 (Regulator of G Protein Signaling 14), O08773 1-544 (natural protein, here or on the partner: dansyl label (site not stated)) MPGKPKHLGVPNGRMVLAVSDGELTSTSGSQAQGEGRGSSLSIHSLPSGPSSPFSTDEQPVASWAQSFERLLQDPRGLAYFTEFLKKEFSAENVTFWQACERFQQIPASDTKQLAQEAHNIYHEFLSSQALSPVNIDRQAWLSEEVLAQPRPDMFRAQQLQIFNLMKFDSYARFVKSPLYQECLLAEAEGRPLREPGSSHLGSPDTARKKPKLKPGKSLPLGVEELGQLPLAEGRPLRKSFRREMPGGAVNSALRRESQGSLNSSASLDLGFLAFVSSKSESHRKSLGSGEGESESRPGKYCCVYLPDGTASLALARPGLTIRDMLAGICEKRGLSLPDIKVYLVGKEQKALVLDQDCTVLADQEVRLENRITFQLELVGLERVVRISAKPTKRLQEALQPILAKHGLSLDQVVLHRPGEKQLVDLENLVSSVASQTLVLDTLPDAKTREASSIPPCRSQGCLPRTQTKDSHLPPLSSSLSVEDASGSTGKRQTCDIEGLVELLNRVQSSGAHDQRGLLRKEDLVLPEFLQLPSQRPGSQEAPP",stoichiometry N,1
